The results in this text go back to patent publication US20120177651A1 (published 2012).

For experiment [1], the target named is T1, recombinant human HGF (human, UniProt P14210 32-728).
T1 construct: also called Hepatocyte Growth Factor; Scatter Factor
Description: ELISA on plate-coated recombinant human HGF, detection with anti-human kappa light chain peroxidase conjugate, Abs 490 nm.

Experiment [2] has as its target T1, recombinant human HGF. The experiment in a line: SPR (Biacore T100), human HGF immobilised on CM5 chip, antibody as analyte, 1:1 binding model, 25 C.
For experiment [3], the target named is T1, recombinant human HGF. Description: cell-based or functional assay. Details: unit not given beside the values.
For the next experiment, the target named is T2, human VEGF (human, UniProt P15692-4 27-191, limits assumed).
T2 construct: The background says that VEGF-A isoforms form homodimers
T2 sequence (P15692 other isoform, or with tags, fused parts or gaps limits assumed): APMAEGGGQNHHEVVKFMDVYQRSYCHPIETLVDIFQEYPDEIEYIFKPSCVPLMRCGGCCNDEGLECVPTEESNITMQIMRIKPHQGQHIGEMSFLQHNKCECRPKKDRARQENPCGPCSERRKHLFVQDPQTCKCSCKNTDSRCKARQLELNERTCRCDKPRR
The experiment in a line: SPR (Biacore T100), antibody captured on Protein A C1 chip, human VEGF as analyte.

Experiment [4] has as its target T1, recombinant human HGF. The experiment in a line: SPR (Biacore T100), human HGF immobilised on CM5 chip, antibody as analyte, bivalent analyte model, 25 C. (Surface plasmon resonance follows binding to a sensor surface in real time, without labels.)
Experiment [5] addresses T1, recombinant human HGF. Description: cell-based or functional assay.

T1 sequence (P14210 32-728 limits assumed): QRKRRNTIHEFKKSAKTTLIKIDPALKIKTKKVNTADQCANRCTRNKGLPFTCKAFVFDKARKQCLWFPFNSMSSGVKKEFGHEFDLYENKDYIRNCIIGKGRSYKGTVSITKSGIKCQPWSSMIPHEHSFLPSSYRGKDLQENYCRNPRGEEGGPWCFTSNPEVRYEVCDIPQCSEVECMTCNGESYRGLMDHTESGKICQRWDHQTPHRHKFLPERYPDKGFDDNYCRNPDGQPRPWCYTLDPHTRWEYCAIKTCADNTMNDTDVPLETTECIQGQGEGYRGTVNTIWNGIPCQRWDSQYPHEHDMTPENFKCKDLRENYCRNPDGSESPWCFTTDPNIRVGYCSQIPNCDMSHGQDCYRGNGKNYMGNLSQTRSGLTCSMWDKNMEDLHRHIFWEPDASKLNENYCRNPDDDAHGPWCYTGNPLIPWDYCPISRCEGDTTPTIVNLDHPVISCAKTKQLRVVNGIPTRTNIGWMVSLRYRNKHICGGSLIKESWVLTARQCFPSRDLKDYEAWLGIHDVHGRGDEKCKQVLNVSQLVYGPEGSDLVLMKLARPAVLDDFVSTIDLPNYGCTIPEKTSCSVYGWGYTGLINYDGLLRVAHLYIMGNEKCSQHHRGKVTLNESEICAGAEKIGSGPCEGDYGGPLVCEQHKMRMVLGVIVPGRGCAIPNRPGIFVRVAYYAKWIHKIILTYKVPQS

B1: BPC2013 (antibody, human IgG1, kappa, V domains shown)
VH: QVQLQESGPGLVKPSETLSLTCTVSGGSISIYYWSWIRQPPGKGLEWIGYVYYSGSTNYNPSLKSRVTISVDTSKNQFSLKLNSVTAADTAVYYCARGGYDFWSGYFDYWGQGTLVTVSS
VL: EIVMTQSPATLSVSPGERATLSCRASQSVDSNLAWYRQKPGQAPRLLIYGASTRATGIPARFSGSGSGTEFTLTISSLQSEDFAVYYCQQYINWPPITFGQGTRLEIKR
notes: Full human IgG1 (Fc wild type) / kappa anti-HGF antibody, expressed in HEK 293-6E cells; also called 2.12.1; anti-HGF mAb 2.12.1
In the case of B1, in the experiment with recombinant human HGF [1], the “EC50 (read off the curve)” value is about 1 nM. In the experiment with recombinant human HGF [2], the Kd was found to be 0.88 nM, the koff was 0.000122 s⁻¹ and the kon amounted to 140000 M⁻¹ s⁻¹. Also, the “IC50, MET phosphorylation in Bx-PC3 cells (mean of three experiments)” value (from here on “IC50, MET phosphorylation”) in the experiment with recombinant human HGF [3] amounted to 3.6. In addition, in the experiment with human VEGF, the binding result was “no binding (tested: human VEGF up to 256 nM)”. For the same molecule, in the experiment with recombinant human HGF [4], the Kd is 0.83 nM, the koff was 0.000202 s⁻¹ and the kon came out at 242000 M⁻¹ s⁻¹.

B2: BPC2014 (antibody, human IgG1, kappa, V domains shown)
VH: QVQLVQPGAEVKKPGTSVKLSCKASGYTFTTYWMHWVRQAPGQGLEWIGEINPTNGHTNYNQKFQGRATLTVDKSTSTAYMELSSLRSEDTAVYYCARNYVGSIFDYWGQGTLVTVSS
VL: DIVMTQSPDSLAMSLGERVTLNCKASENVVSYVSWYQQKPGQSPKLLIYGASNRESGVPDRFSGSGSATDFTLTISSVQAEDVADYHCGQSYNYPYTFGQGTKLEIKR
notes: Full human IgG1 (Fc wild type) / kappa anti-HGF antibody, expressed in HEK 293-6E cells; also called HE2B8-4; anti-HGF mAb LRMR2B8
On to B2, for which, in the experiment with recombinant human HGF [1], the “EC50 (read off the curve)” value is about 1 nM. In the experiment with recombinant human HGF [2], the Kd is 1.54 nM, the koff was 0.00011 s⁻¹ and the kon came out at 71400 M⁻¹ s⁻¹. The “IC50, MET phosphorylation” value with recombinant human HGF [3] was found to be 4.5. Further, the binding result in the experiment with human VEGF is on record as “no binding (tested: human VEGF up to 256 nM)”. Further, in the experiment with recombinant human HGF [4], the Kd is 1.62 nM, the koff came to 0.000204 s⁻¹ and the kon was determined as 126000 M⁻¹ s⁻¹.

B3: BPC2015 (antibody, human IgG1, kappa, V domains shown)
VH: EVQLVQSGAEVKKPGASVKVSCKVSGYTFSGNWIEWVRQAPGKGLEWIGEILPGSGNTNYNEKFKGKATMTADTSTDTAYMELSSLRSEDTAVYYCARGGHYYGSSWDYWGQGTLVTVSS
VL: DIVMTQSPSSLSASVGDRVTITCKASENVVTYVSWYQQKPGKAPKLLIYGASNRYTGVPDRFSGSGSGTDFTLTISSLQPEDFATYYCGQGYSYPYTFGQGTKLEIKR
notes: Full human IgG1 (Fc wild type) / kappa anti-HGF antibody, expressed in HEK 293-6E cells; also called HuL2G7; anti-HGF mAb HuL2G7
Turning to B3, in the experiment with recombinant human HGF [1], the “EC50 (read off the curve)” value was about 0.7 nM. Also, in the experiment with recombinant human HGF [2], the Kd was determined as 0.44 nM, the koff amounted to 8.19e-05 s⁻¹ and the on-rate constant (kon) amounted to 186000 M⁻¹ s⁻¹. Moreover, the “IC50, MET phosphorylation” value in the experiment with recombinant human HGF [3] is 4.2. Further, in the experiment with recombinant human HGF [5], the “IC50, % phospho AKT in Bx-PC3 cells (MSD, mean of two experiments)” value turned out to be 0.63 nM; the “IC50, % phospho ERK in Bx-PC3 cells (MSD, mean of two experiments)” value was 0.98 nM; the “IC50, % phospho MET in Bx-PC3 cells (MSD, mean of two experiments)” value is 0.4 nM; the “IC50, Bx-PC3 cell migration with 25 ng/ml HGF (Oris, mean of three experiments)” value stood at 0.33 nM. In the experiment with recombinant human HGF [4], the Kd amounted to 0.58 nM, the koff was found to be 0.000132 s⁻¹ and the kon amounted to 228000 M⁻¹ s⁻¹.

As usually defined, the EC50 (read off the curve) is the concentration that produces a half-maximal response. The term koff denotes the rate constant with which the complex falls apart. One may read the kon as the rate constant with which the complex forms.
